Assay results published in patent US20130045191A1 (IMMATICS BIOTECHNOLOGIES, published 2013).

Target: T1, HLA A*024 (human)
T1 construct: also called HLA A*024 alleles; HLA-A*24
Experiment: HLA immunoprecipitation from tumour tissue, LC-MS (Example 1)

binding result: binds
Binder: LYQILQGIVF [CDC2-001]
